Test: First-order nonenzymatic deamidation of pentapeptides in Tris buffer
Type: physicochemical
Conditions: 0.15 M Tris HCl; for First-Order Deamidation Halftimes of GlyXxxAsnYyyGly: pH 7.4, 37.0° C., Asn pentapeptides; for First-Order Deamidation Halftimes of GlyXxxGlnYyyGly: pH 7.4, 37.0 ° C., Gln pentapeptides, 52 values measured, rest derived from surface fitting
Procedure, shortened: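 Pentapeptides containing Asn or Gln in varied flanking sequences incubated at 37° C., pH 7.4, 0.15 M Tris buffer; first-order deamidation rates measured. Some Asn values estimated from remaining data; many Gln values derived from surface fitting rather than measured.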

| Substance | First-Order Deamidation Halftimes of GlyXxxAsnYyyGly [days] | First-Order Deamidation Halftimes of GlyXxxGlnYyyGly [days] |
| --- | --- | --- |
| GlyValAsnHisGly (GVNHG; printed: GlyValAsnHisGly) | 10.2 |  |
| GlyValAsnIleGly (GVNIG; printed: GlyValAsnIleGly) | 366 |  |
| GlyValAsnLeuGly (GVNLG; printed: GlyValAsnLeuGly) | 154 |  |
| GlyValAsnLysGly (GVNKG; printed: GlyValAsnLysGly) | 63.8 |  |
| GlyValAsnMetGly (GVNMG; printed: GlyValAsnMetGly) | 65.7 |  |
| GlyValAsnPheGly (GVNFG; printed: GlyValAsnPheGly) | 66.6 |  |
| GlyValAsnProGly (GVNPG; printed: GlyValAsnProGly) | 8030 |  |
| GlyValAsnSerGly (GVNSG; printed: GlyValAsnSerGly) | 18.2 |  |
| GlyValAsnThrGly (GVNTG; printed: GlyValAsnThrGly) | 49.9 |  |
| GlyValAsnTrpGly (GVNWG; printed: GlyValAsnTrpGly) | 88.9 |  |
| GlyValAsnTyrGly (GVNYG; printed: GlyValAsnTyrGly) | 79.2 |  |
| GlyValAsnValGly (GVNVG; printed: GlyValAsnValGly) | 291 |  |
| GlyValGlnAlaGly (GVQAG; printed: GlyValGlnAlaGly) |  | 4500 |
| GlyValGlnArgGly (GVQRG; printed: GlyValGlnArgGly) |  | 6100 |
| GlyValGlnAspGly (GVQDG; printed: GlyValGlnAspGly) |  | 7000 |
| GlyValGlnCysGly (GVQCG; printed: GlyValGlnCysGly) |  | 1300 |
| GlyValGlnGluGly (GVQEG; printed: GlyValGlnGluGly) |  | 6500 |
| GlyValGlnGlyGly (GVQGG; printed: GlyValGlnGlyGly) |  | 640 |
| GlyValGlnHisGly (GVQHG; printed: GlyValGlnHisGly) |  | 5000 |
| GlyValGlnIleGly (GVQIG; printed: GlyValGlnIleGly) |  | 5600 |
| GlyValGlnLeuGly (GVQLG; printed: GlyValGlnLeuGly) |  | 5500 |
| GlyValGlnLysGly (GVQKG; printed: GlyValGlnLysGly) |  | 5200 |
| GlyValGlnMetGly (GVQMG; printed: GlyValGlnMetGly) |  | 4200 |
| GlyValGlnPheGly (GVQFG; printed: GlyValGlnPheGly) |  | 7200 |
| GlyValGlnProGly (GVQPG; printed: GlyValGlnProGly) |  | 8500 |
| GlyValGlnSerGly (GVQSG; printed: GlyValGlnSerGly) |  | 4400 |
| GlyValGlnThrGly (GVQTG; printed: GlyValGlnThrGly) |  | 4300 |
| GlyValGlnTrpGly (GVQWG; printed: GlyValGlnTrpGly) |  | 12000 |
| GlyValGlnTyrGly (GVQYG; printed: GlyValGlnTyrGly) |  | 9700 |
| GlyValGlnValGly (GVQVG; printed: GlyValGlnValGly) |  | 5900 |
